# Target: GD-FXaS195A (Gla-domainless factor Xa, catalytically inactive) (UniProt P00742;P00742 85-179;235-488, S419A)
# Assay: X-ray crystallography
# Chain of GD-FXaS195A (Gla-domainless factor Xa, catalytically inactive) (P00742 85-179, chain 1 of 2): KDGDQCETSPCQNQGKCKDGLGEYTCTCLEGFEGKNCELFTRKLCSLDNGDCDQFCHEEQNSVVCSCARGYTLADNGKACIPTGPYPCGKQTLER
# Chain of GD-FXaS195A (Gla-domainless factor Xa, catalytically inactive) (P00742 235-488 S419A, chain 2 of 2): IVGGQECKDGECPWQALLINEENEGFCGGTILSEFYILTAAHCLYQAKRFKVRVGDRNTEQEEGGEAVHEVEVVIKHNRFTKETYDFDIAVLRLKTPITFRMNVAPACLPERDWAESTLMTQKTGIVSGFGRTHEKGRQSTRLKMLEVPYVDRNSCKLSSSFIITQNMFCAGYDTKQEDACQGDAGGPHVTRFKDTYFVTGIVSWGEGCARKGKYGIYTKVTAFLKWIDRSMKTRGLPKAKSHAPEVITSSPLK
binder,measurement,value
"GAGAGCCCCAGCGAGAUAAUACUUGGCCCCGCUCUU (structured_RNA, all C are 2'-fluoro-C and all U are 2'-fluoro-U; purines A/G as ribonucleotides) [11F7t]",binding result,binds

# — PMC6349032
